Experimental findings from patent publication US20240016923A1 (UNIVERSITY OF MARYLAND COLLEGE PARK, published 2024) are described below.

First the molecules themselves.
B2: secreted E1E2 with c-Fos/c-Jun leucine zipper scaffold (sE1E2.LZ) (other)
chain 1: YQVRNSSGLYHVTNDCPNSSIVYEAADAILHTPGCVPCVREGNASRCWVAVTPTVATRDGKLPTTQLRRHIDLLVGSATLCSALYVGDLCGSVFLVGQLFTFSPRRHWTTQDCNCSIYPGHITGHRMAWDMMMNWSPTAALVVAQLLRIPQAIMDMIAPGGRIARLEEKVKTLKAQNSELASTANMLREQVAQLKQKVMNYRRRRRR
chain 2: ETHVTGGSAGRTTAGLVGLLTPGAKQNIQLINTNGSWHINSTALNCNESLNTGWLAGLFYQHKFNSSGCPERLASCRRLTDFAQGWGPISYANGSGLDERPYCWHYPPRPCGIVPAKSVCGPVYCFTPSPVVVGTTDRSGAPTYSWGANDTDVFVLNNTRPPLGNWFGCTWMNSTGFTKVCGAPPCVIGGVGNNTLLCPTDCFRKHPEATYSRCGSGPWITPRCMVDYPYRLWHYPCTINYTIFKVRMYVGGVEHRLEAACNWTRGERCDLEDRDRSELSPLLLSTTQWQVLPCSFTTLPALSTGLIHLHQNIVDVQYLYGVGSSIASWAIPGGLTDTLQAETDQLEDKKSALQTEIANLLKEKEKLEFILAAYHHHHHH
notes: It is written here as the two chains expected after furin cleavage

Assay [1] has as its target T1, membrane-bound E1E2 (mbE1E2) (Hepatitis C virus, isolate H77C …, UniProt P27958 192-746).
T1 construct: Extracted from Expi293 membranes with detergent and purified; a heterogeneous mix of oligomers
Put plainly: dose-dependent ELISA, antigen captured by GNA lectin. On the technique in general: In an ELISA, binding on a coated surface is turned into a signal by an enzyme label.

Assay [2] concerns the target B2. Described as above.
For the next assay, the target named is T2, c-Fos peptide (human).
T2 construct: Synthetic biotinylated peptide
Put plainly: circular dichroism spectroscopy of mixed peptides. On the technique in general: Circular dichroism is widely used to follow secondary structure.

For assay [3], the target named is T3, CD81 large extracellular loop (CD81-LEL) (UniProt P60033 113-201).
T3 construct: domain: large extracellular loop (LEL); also called CD81 receptor
T3 sequence (looked up): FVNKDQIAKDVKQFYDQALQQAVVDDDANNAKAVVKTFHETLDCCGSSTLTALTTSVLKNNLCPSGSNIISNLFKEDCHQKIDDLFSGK
Nature of the assay: SPR (Biacore T200); sE1E2.LZ amine-coupled to a CM5 chip, CD81-LEL injected; 1:1 model.

The target in assay [4] is T3, CD81 large extracellular loop (CD81-LEL). Put plainly: SPR (Biacore T200), antigen amine-coupled on CM5 chip, CD81-LEL injected, single cycle kinetics, 1:1 model. Background: SPR reads the build-up and loss of mass on a sensor chip optically.

Ends that are not written are not given here.

B1: HC84.24 (antibody, V domains shown)
VH: QVQLVQSGAEVKKPGSSVKVSCKASGGTFSLNSLSWVRQAPGQGLEWMGTIIPIVGIANYAQKFQGRVTITADKSTGTAYMDLSSLSDDTAVYFCARELYSGTGFFRLEALDYWGQGTLVTVSS
VL: DIQMTQSPATLSLSPGERATLSCRASQSVSSYLAWYQQKPGQAPRLLIYDASNRATGIPARFIAGGSGTDFTLTISSLEPEDFAVYYCQQYGSPQTFGQGTKLEIKR
B1: the equilibrium dissociation constant (Kd) in assay [1] stood at 0.5 nM; in assay [2], 1.3 nM.

Regarding RIARLEEKVKTLKAQNSELASTANMLREQVAQLKQKVMNY (also: biotinylated, position not given here, Synthetic biotinylated peptide) [c-Jun peptide], the binding result in the assay with c-Fos peptide is listed as “binds”.

For the molecule B2, in assay [3], the dissociation rate constant (koff) worked out at 0.00067 s⁻¹ and the on-rate constant (kon) amounted to 63000 M⁻¹ s⁻¹. Besides, the affinity in assay [4], expressed as Kd, was 10.8 nM.

By Kd is commonly meant the free concentration of one partner at which half of the binding sites on the other are occupied at equilibrium, for simple one-to-one binding. One may read the koff as a measure of how fast the partners let go of each other. The term kon denotes the rate constant with which the complex forms. Low values mean slow association, high ones fast association.
